Consider nine molecules from US20250041437A1 (SUN PHARMA ADVANCED RESEARCH, published 2025).

B1: HM2 LM2 variant of humanized anti-MUC1 antibody SP66 (antibody, V domains shown)
VH: EIQLVQSGAEVKKPGSSVKVSCKVTGHSITRGSSWHWMRQAPGQGLEWIGYIHYGGGTSYNPSLKSRITITRDTSTNTAYMELSSLRSEDTAFYFCARYSYDITYRWFFDVWGQGTLVTVSS
VL: DIQMTQSPSTLSASVGDRVTITCRASQNIGTSIHWYQQKPGKAPKLLIKRASESISGVPSRFSGSGSGTEFTLTISSLQPDDFATYYCQQNNNWPLTFGQGTKVEVK
notes: Humanized IgG expressed in CHO cells; only variable domains tied to the variant
B2: humanized IgG1 anti-MUC1-SEA mAb (HM5 LM4) (antibody, V domains shown)
VH: EIQLVQSGAEVKKPGSSVKVSCKVTGHSITRGSSWHWMRQAPGQGLEWIGYIHYGGGTSYNPSLKSRITITRDTSTNTFYMELSSLRSEDTAFYFCARYSYDITYRWFFDVWGQGTLVTVSS
VL: DIQMTQSPSTLSASVGDRVTITCRASQNIGTSIHWYQQKPGKAPKLLIKYASESISGVPSRFSGSGSGTEFTLTISSLQPDDFATYYCQQNNNWPLTFGQGTKVEIKR
notes: also called Humanized anti-MUC1 SEA IgG1; humanized IgG anti-MUC1-SEA mAb
B3: HM3 LM2 variant of humanized anti-MUC1 antibody SP66 (antibody, V domains shown)
VH: EIQLVQSGAEVKKPGSSVKVSCKVTGHSITRGSSWHWMRQAPGQGLEWIGYIHYGGGTSYNPSLKSRATLTRDTSTNTAYMELSSLRSEDTAFYFCARYSYDITYRWFFDVWGQGTLVTVSS
VL: DIQMTQSPSTLSASVGDRVTITCRASQNIGTSIHWYQQKPGKAPKLLIKRASESISGVPSRFSGSGSGTEFTLTISSLQPDDFATYYCQQNNNWPLTFGQGTKVEVK
notes: as for B1
B4: HM4 LM3 variant of humanized anti-MUC1 antibody SP66 (antibody, V domains shown)
VH: EIQLVQSGAEVKKPGSSVKVSCKVTGHSITRGSSWHWMRQAPGQGLEWIGYIHYGGGTSYNPSLKSRATLTRDTSTNTFYMELSSLRSEDTAFYFCARYSYDITYRWFFDVWGQGTLVTVSS
VL: DIQMTQSPSTLSASVGDRVTITCRASQNIGTSIHWYQQKPGKAPKLLIKYASESISGVPSRFSGSGSGTEFTLTISSLQPDDFATYYCQQNNNWPLTFGQGTKVEVK
notes: as for B1
B5: HM3 LM3 variant of humanized anti-MUC1 antibody SP66 (antibody, V domains shown)
VH: EIQLVQSGAEVKKPGSSVKVSCKVTGHSITRGSSWHWMRQAPGQGLEWIGYIHYGGGTSYNPSLKSRATLTRDTSTNTAYMELSSLRSEDTAFYFCARYSYDITYRWFFDVWGQGTLVTVSS
VL: DIQMTQSPSTLSASVGDRVTITCRASQNIGTSIHWYQQKPGKAPKLLIKYASESISGVPSRFSGSGSGTEFTLTISSLQPDDFATYYCQQNNNWPLTFGQGTKVEVK
notes: as for B1
B6: HM4 LM2 variant of humanized anti-MUC1 antibody SP66 (antibody, V domains shown)
VH: EIQLVQSGAEVKKPGSSVKVSCKVTGHSITRGSSWHWMRQAPGQGLEWIGYIHYGGGTSYNPSLKSRATLTRDTSTNTFYMELSSLRSEDTAFYFCARYSYDITYRWFFDVWGQGTLVTVSS
VL: DIQMTQSPSTLSASVGDRVTITCRASQNIGTSIHWYQQKPGKAPKLLIKRASESISGVPSRFSGSGSGTEFTLTISSLQPDDFATYYCQQNNNWPLTFGQGTKVEVK
notes: as for B1
B7: HM2 LM3 variant of humanized anti-MUC1 antibody SP66 (antibody, V domains shown)
VH: EIQLVQSGAEVKKPGSSVKVSCKVTGHSITRGSSWHWMRQAPGQGLEWIGYIHYGGGTSYNPSLKSRITITRDTSTNTAYMELSSLRSEDTAFYFCARYSYDITYRWFFDVWGQGTLVTVSS
VL: DIQMTQSPSTLSASVGDRVTITCRASQNIGTSIHWYQQKPGKAPKLLIKYASESISGVPSRFSGSGSGTEFTLTISSLQPDDFATYYCQQNNNWPLTFGQGTKVEVK
notes: as for B1
B8: HM5 LM2 variant of humanized anti-MUC1 antibody SP66 (antibody, V domains shown)
VH: EIQLVQSGAEVKKPGSSVKVSCKVTGHSITRGSSWHWMRQAPGQGLEWIGYIHYGGGTSYNPSLKSRITITRDTSTNTFYMELSSLRSEDTAFYFCARYSYDITYRWFFDVWGQGTLVTVSS
VL: DIQMTQSPSTLSASVGDRVTITCRASQNIGTSIHWYQQKPGKAPKLLIKRASESISGVPSRFSGSGSGTEFTLTISSLQPDDFATYYCQQNNNWPLTFGQGTKVEVK
notes: as for B1
B9: HM5 LM3 variant of humanized anti-MUC1 antibody SP66 (antibody, V domains shown)
VH: EIQLVQSGAEVKKPGSSVKVSCKVTGHSITRGSSWHWMRQAPGQGLEWIGYIHYGGGTSYNPSLKSRITITRDTSTNTFYMELSSLRSEDTAFYFCARYSYDITYRWFFDVWGQGTLVTVSS
VL: DIQMTQSPSTLSASVGDRVTITCRASQNIGTSIHWYQQKPGKAPKLLIKYASESISGVPSRFSGSGSGTEFTLTISSLQPDDFATYYCQQNNNWPLTFGQGTKVEVK
notes: as for B1

The target of one experiment is T1, recombinant human MUC1-SEA (MUC1 antigen, Acrobiosystems, Cat: MU1-H52H9) (human, UniProt P15941 1039-1158).
T1 construct: Bought protein, captured on an anti-His chip (so His-tagged)
T1 sequence: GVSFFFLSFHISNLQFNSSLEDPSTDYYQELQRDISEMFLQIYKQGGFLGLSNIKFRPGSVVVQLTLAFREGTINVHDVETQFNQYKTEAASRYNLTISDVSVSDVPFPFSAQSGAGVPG
Description: SPR; MUC1 antigen captured on anti-His CM5 chip, antibody as analyte. (In general: SPR reads the build-up and loss of mass on a sensor chip optically.)
Usually Kd stands for a measure of binding affinity in units of concentration. In general, koff refers to the rate constant with which the complex falls apart. As a reminder, the kon is a measure of how fast the partners come together. Consider B1, for which the Kd stood at 0.144 nM, the koff came out at 0.000255 s⁻¹ and the kon turned out to be 1.77e+06 M⁻¹ s⁻¹.
As for B2, the Kd turned out to be 0.0298 nM, the koff came out at 0.00015 s⁻¹ and the kon amounted to 5.02e+06 M⁻¹ s⁻¹.
For B3, in that order: 0.186 nM, 0.000492 s⁻¹ and 2.65e+06 M⁻¹ s⁻¹.
For B4, in that order: 0.0826 nM, 0.000238 s⁻¹ and 2.88e+06 M⁻¹ s⁻¹.
Turning to B5, the Kd was 0.0775 nM, the koff turned out to be 0.00347 s⁻¹ and the kon is 4.47e+07 M⁻¹ s⁻¹.
For B6, in that order: 0.0639 nM, 0.000261 s⁻¹ and 4.08e+06 M⁻¹ s⁻¹.
For B7, in that order: 0.0598 nM, 0.000188 s⁻¹ and 3.14e+06 M⁻¹ s⁻¹.
For B8 the same measures were 0.0444 nM, 0.000213 s⁻¹ and 4.8e+06 M⁻¹ s⁻¹.
As to B9, the Kd turned out to be 0.05 nM, the koff stood at 0.000198 s⁻¹ and the kon is 3.97e+06 M⁻¹ s⁻¹.

A further experiment has as its target T1, recombinant human MUC1-SEA (MUC1 …). Description: SPR, single cycle kinetics; MUC1 antigen captured on anti-His CM5 chip.
Consider B2, for which the Kd was 0.0397 nM, the koff amounted to 0.000281 s⁻¹ and the kon is 7.07e+06 M⁻¹ s⁻¹.
